B1: recombinant IGFBP-2 produced in mammalian cells (other, UniProt P18065 36-325, looked up)
chain: AEVLFRCPPCTPERLAACGPPPVAPPAAVAAVAGGARMPCAELVREPGCGCCSVCARLEGEACGVYTPRCGQGLRCYPHPGSELPLQALVMGEGTCEKRRDAEYGASPEQVADNGDDHSEGGLVENHVDSTMNMLGGGGSAGRKPLKSGMKELAVFREKVTEQHRQMGKGGKHHLGLEEPKKLRPPPARTPCQQELDQVLERISTMRLPDERGPLEHLYSLHIPNCDKHGLYNLKQCKMSLNGQRGECWCVNPNTGKLIQGAPTIRGDPECHLFYNEQQEARGVHTQRMQ
B2: recombinant IGFBP-4 produced in mammalian cells (other, UniProt P22692 22-258, looked up)
chain: DEAIHCPPCSEEKLARCRPPVGCEELVREPGCGCCATCALGLGMPCGVYTPRCGSGLRCYPPRGVEKPLHTLMHGQGVCMELAEIEAIQESLQPSDKDEGDHPNNSFSPCSAHDRRCLQKHFAKIRDRSTSGGKMKVNGAPREDARPVPQGSCQSELHRALERLAASQSRTHEDLYIIPIPNCDRNGNFHPKQCHPALDGQRGKCWCVDRKTGVKLPGGLEPKGELDCHQLADSFRE
B3: IGFBP-3 glycosylation mutant (Non-gly IGFBP-3) (other, UniProt P17936 28-291, looked up)
chain: GASSAGLGPVVRCEPCDARALAQCAPPPAVCAELVREPGCGCCLTCALSEGQPCGIYTERCGSGLRCQPSPDEARPLQALLDGRGLCVAASAVSRLRAYLLPAPPAPGAASESEEDRSAGSVESPSVSSTHRVSDPKFHPLHSKIIIIKKGHAKDSQRYKVDYESQSTDTQAFSSESKRETEYGPCRREMEDTLNHLKFLNVLSPRGVHIPNCDKKGFYKKKQCRPSKGRKRGFCWCVDKYGQPLPGYTTKGKEDVHCYSMQSK
modifications: non-glycosylated (glycosylation sites mutated)
notes: they probably count on mature IGFBP-3; also called non-glycosylated IGFBP-3 mutant; mutant IGFBP-3

Legend:
vitronectin [1] = target: T1, vitronectin (UniProt P04004 20-478); assay: [^125I]-IGF-I bound to VN-coated wells (300 ng/well) with 5 ng IGFBP; IGFBP:VN binding read through labelled IGF-I
T1 construct: also called VN

vitronectin [2] = target: T1, vitronectin; assay: [^125I]-IGF-I bound to VN-coated wells with 2 ng of the non-glycosylated IGFBP-3 mutant; IGFBP:VN binding read through labelled IGF-I

T1 sequence (P04004 20-478 limits assumed): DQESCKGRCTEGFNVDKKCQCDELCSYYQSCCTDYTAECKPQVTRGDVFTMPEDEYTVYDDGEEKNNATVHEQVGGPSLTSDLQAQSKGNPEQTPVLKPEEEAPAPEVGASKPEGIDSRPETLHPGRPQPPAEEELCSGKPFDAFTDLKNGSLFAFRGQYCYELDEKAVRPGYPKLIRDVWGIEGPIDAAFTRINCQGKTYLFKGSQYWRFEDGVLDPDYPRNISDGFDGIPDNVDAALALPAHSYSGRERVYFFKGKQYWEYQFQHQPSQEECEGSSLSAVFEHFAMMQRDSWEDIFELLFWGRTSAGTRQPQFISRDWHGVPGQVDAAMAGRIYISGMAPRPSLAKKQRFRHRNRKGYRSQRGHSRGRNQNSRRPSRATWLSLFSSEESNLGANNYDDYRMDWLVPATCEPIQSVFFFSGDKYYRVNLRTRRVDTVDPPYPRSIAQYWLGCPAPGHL

Binder | fold increase in binding of labelled IGF-I to VN-coated wells against wells without IGFBP (vitronectin [1]) [fold] | fold increase in binding of labelled IGF-I to VN-coated wells (vitronectin [2]) [fold]
B1 | ~2.8 | 
B2 | ~3.8 | 
B3 |  | 20

From patent US7785835 (QUEENSLAND UNIVERSITY OF TECHNOLOGY, dated 2010)
